The values that follow come from the supplement of paper PMC10567573.

The data set in a line: protein stability index of a GFP-peptide fusion (GPS, HEK-293T) (PSI 1-6); higher = more stable. The settings on record: c terminus: a fixed tail appended.

± gives the standard deviation.
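Note: 24-mer peptide tiles fused after GFP, lentivirally expressed, FACS-sorted into six equal bins by GFP/DsRed ratio, decoded by Illumina sequencing, PSI is the read-weighted mean bin number.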

Take MASPCSAMAYHHDSRRIFVGQDNG [WDFY1]: the protein stability index runs as follows: (treatment: DMSO) 2.64 ± 0.18; (treatment: MLN4924 1 uM, 8 h) 2.67 ± 0.11.
As to AMVEFVKLLNRCCHLFSTYVASHK [ACBD3], the protein stability index runs as follows: (treatment: DMSO) 2.97 ± 0.19; (treatment: MLN4924 1 uM, 8 h) 2.85 ± 0.16.
For PRQADHDDHECCERVVINISGLRF [KCNA1], in that order: 3.1 ± 0.086 and 3.33 ± 0.27.
For ERCLSCILAQQPDRLRDEELAELE [TRADD], in that order: 4.41 ± 0.39 and 4.19 ± 0.51.
For SNTGSESNSATVEEPPTDPIPEDE [SMARCE1], the protein stability index by setting is: (treatment: DMSO) 5.48 ± 0.45; (treatment: MLN4924 1 uM, 8 h) 5.33 ± 0.51.
For ILIALVGATPSYHWDLAELLPNQS [SLC22A15], in that order: 2.85 ± 0.43 and 2.9 ± 0.75.
LRLFGRVLERAACLRRCKRTLPAF [P3H4] gave a protein stability index (treatment: DMSO) of 2.37 ± 0.46 and a protein stability index (treatment: MLN4924 1 uM, 8 h) of 2.16 ± 0.53.
GFALDILFAIANGFSPSYEFFAVT [SLC22A15]: the protein stability index runs as follows: (treatment: DMSO) 3.3 ± 0.042; (treatment: MLN4924 1 uM, 8 h) 3.29 ± 1.1.
Taken in the same sequence, the figures for PKNGRHAWIWHDCHRHYHSMEVFT [LOXL2] were 2.28 ± 0.24 and 2.4 ± 0.17.
For HNRVSKEDEDIYKLRHDLKKTSIT [PLK2], in that order: 4.02 ± 0.2 and 4.12 ± 0.081.
As for LSMVSECLFSLINGDDMFVTFAAM [MCOLN1], the protein stability index is, setting by setting: (treatment: DMSO) 2.35 ± 0.43; (treatment: MLN4924 1 uM, 8 h) 2.31 ± 0.3.
GFLTVTNLGVENMNHYKKTTLEIH [PTPN9] yielded a protein stability index (treatment: DMSO) of 1.93 ± 0.59 and a protein stability index (treatment: MLN4924 1 uM, 8 h) of 1.92 ± 0.4.
For EAAYLKILESSQTLLSVLKREAGN [SSNA1], in that order: 2.39 ± 0.13 and 2 ± 0.26.
On to IPKSSDPEMRWNKGTILKASVDYI [TFE3], for which the protein stability index is 2.79 ± 0.32 (treatment: DMSO) and 3.03 ± 0.26 (treatment: MLN4924 1 uM, 8 h).
Turning to LRKSDMLEKEQVAHIRAERDILVE [STK38L], the protein stability index reads like this: (treatment: DMSO) 3.8 ± 0.35; (treatment: MLN4924 1 uM, 8 h) 4.17 ± 0.13.
For SYAFGKFPTVVWTWWIMFLSTFSV [SOAT1], in that order: 2.98 ± 0.57 and 2.97 ± 0.29.
In the case of DMKAMSPENQEYFEKHRWPPVWYL [RHOBTB2], the protein stability index is, setting by setting: (treatment: DMSO) 2.47 ± 0.17; (treatment: MLN4924 1 uM, 8 h) 2.67 ± 0.36.
Taken in the same sequence, the figures for WLQERYEIVGNLGEGTFGKVVECL [CLK3] were 2.24 ± 0.068 and 2.27 ± 0.12.
Taken in the same sequence, the figures for DNLKFSQEYESIDPGQQFTWEHSN [PTPRD] were 4.57 ± 0.44 and 4.57 ± 0.11.
VLGGFLYAVGGSDGTSPLNTVERY [KLHL20] returned a protein stability index (treatment: DMSO) of 2.18 ± 0.32 and a protein stability index (treatment: MLN4924 1 uM, 8 h) of 2.47 ± 0.22.
For SGLDDFFLDIDTSAVEKEPARAPP [SERTAD3], the protein stability index reads like this: (treatment: DMSO) 4.71 ± 0.24; (treatment: MLN4924 1 uM, 8 h) 4.75 ± 0.31.
Taken in the same sequence, the figures for ILFVNSEFETLYNEHKSCEEKSVK [CLK3] were 2.74 ± 0.25 and 3.05 ± 0.3.
With GMADVGTVCDPARSCAIVEDDGLQ [ADAMTS4], the protein stability index is, setting by setting: (treatment: DMSO) 4.62 ± 1.1; (treatment: MLN4924 1 uM, 8 h) 5.33 ± 0.088.
Taken in the same sequence, the figures for GQVIWGMSWAKLARQATNLKVNFF [FBXO39] were 2.2 ± 0.72 and 2.2 ± 0.52.
For RQVRDKTLKRGYFQKSLVLISKLP [DENND6A], in that order: 2.27 ± 0.15 and 2.36 ± 0.41.
Taken in the same sequence, the figures for GTEITIAFDFDYGNCKYKVDCACL [KMT2E] were 3.01 ± 0.52 and 2.39 ± 0.5.
As for ILVQTPESESPQSHRAAGSGVSDY [TRIM9], the protein stability index (treatment: DMSO) is 4.49 ± 0.37 and the protein stability index (treatment: MLN4924 1 uM, 8 h) is 4.49 ± 0.21.
Taken in the same sequence, the figures for SCPNGMSAENGLEKSGFSQHQNKS [DLC1] were 4.86 ± 0.17 and 5.06 ± 0.11.
Consider CMYEHGEDTHQSPEPEDEPGGPGA [RSPH3], for which the protein stability index runs as follows: (treatment: DMSO) 5.42 ± 0.29; (treatment: MLN4924 1 uM, 8 h) 5.51 ± 0.17.
SEKGKPYVDIQGLTASTMEILLDF [KLHL12]: the protein stability index came out at 2.06 ± 0.5 (treatment: DMSO) and 2.25 ± 0.6 (treatment: MLN4924 1 uM, 8 h).
Take IRLVDDAFGKICHMVSDGSWVVRV [INTS4]: the protein stability index reads like this: (treatment: DMSO) 3.07 ± 0.46; (treatment: MLN4924 1 uM, 8 h) 2.98 ± 0.54.
On to RITQYLDAGGIPRTAQSEETRVWH [CAMK2A], for which the protein stability index reads like this: (treatment: DMSO) 3.03 ± 0.29; (treatment: MLN4924 1 uM, 8 h) 3.24 ± 0.39.
For RRPVNVPLDMFSEEIKFYELGEEA [KCNA1], in that order: 3.62 ± 0.33 and 3.84 ± 0.17.
For KRSWTSAQNACSEHGATLAVIDSE [CD69], in that order: 4.64 ± 0.076 and 4.67 ± 0.17.
Consider PKYQLFVPQLVTGRCATRAFHRKS [RNF180], for which the protein stability index was found to be 2.14 ± 0.34 (treatment: DMSO) and 2.21 ± 0.28 (treatment: MLN4924 1 uM, 8 h).
Take AQLRDAVQSLQLSPRTRGSWSQPQ [RASAL3]: the protein stability index by setting is: (treatment: DMSO) 3.65 ± 0.15; (treatment: MLN4924 1 uM, 8 h) 3.6 ± 0.35.
For SKVIEILDSQTEIYQYVQNSMAPH [DLC1], in that order: 2.6 ± 0.3 and 2.71 ± 0.28.
On to ASKDPREVREARDHKEPKEEINKN [EHMT1], for which the protein stability index worked out at 5.5 ± 0.2 (treatment: DMSO) and 5.66 ± 0.29 (treatment: MLN4924 1 uM, 8 h).
For LRTHIDAIILALPEDLQGILLKTG [DENND6A], in that order: 2.17 ± 0.31 and 2.4 ± 0.084.
For RDVVLCSLLNFLPEGVNKLKISPV [TENT5C], in that order: 2.2 ± 0.44 and 2.02 ± 0.43.
For EEEDDDDIHITARIESDLTLESLS [DRICH1], in that order: 5.16 ± 0.12 and 5.16 ± 0.083.
In the case of DLDDFAGFSCNQGRYPLIQTLRQE [CHIT1], the protein stability index runs as follows: (treatment: DMSO) 3.44 ± 0.2; (treatment: MLN4924 1 uM, 8 h) 3.48 ± 0.082.
Taken in the same sequence, the figures for GVKSRIQALRQMNEGAIDCVNYEG [DLC1] were 3.77 ± 0.32 and 3.87 ± 0.36.
As for ATPEQGLSAFYLSYFDMLYPEDSS [SPDEF], the protein stability index came out at 2.75 ± 0.48 (treatment: DMSO) and 2.8 ± 0.41 (treatment: MLN4924 1 uM, 8 h).
Taken in the same sequence, the figures for NALSKSSAPPITPECRQVLKTSRK [CHGB] were 4.68 ± 0.22 and 4.77 ± 0.15.
Taken in the same sequence, the figures for FPRDAVQIEEVFISEEIQMSTKES [MIA2] were 4.56 ± 0.17 and 4.5 ± 0.2.
SQMVSTDNSLSSQNYISQKEDASE [MIA2]: the protein stability index came to 5.29 ± 0.44 (treatment: DMSO) and 5.21 ± 0.26 (treatment: MLN4924 1 uM, 8 h).
Taken in the same sequence, the figures for RLLQEEDRRKKIARMGFNASSMLR [DCAF4] were 2.52 ± 0.22 and 2.57 ± 0.25.
With DIKDDIYDPTYKDKEGPSPKVEYV [SCD], the protein stability index is 4.92 ± 0.14 (treatment: DMSO) and 4.68 ± 0.17 (treatment: MLN4924 1 uM, 8 h).
DENREVLQTLLYFLSDVTAAVKEN [DLC1] came in with a protein stability index (treatment: DMSO) of 2.14 ± 0.28 and a protein stability index (treatment: MLN4924 1 uM, 8 h) of 2.33 ± 0.19.
Taken in the same sequence, the figures for QPLADEGPPGRSIGGAAPSLGALD [SERTAD1] were 5.19 ± 0.24 and 5.32 ± 0.15.
Taken in the same sequence, the figures for RCACAASSDESPGSKCSPEDLATA [TTC32] were 3.83 ± 0.49 and 4.08 ± 0.23.
For NTEIEKLGRSIVSSPQGKSGPEAA [PKD2L1], in that order: 5.35 ± 0.22 and 5.34 ± 0.15.
With KQNARFLTSMRRLSSIKRDTNSIA [STX11], the protein stability index is, setting by setting: (treatment: DMSO) 3.12 ± 0.25; (treatment: MLN4924 1 uM, 8 h) 3.21 ± 0.2.
As to GKTMELFCQTDQTCICYLCMFQEH [TRIM29], the protein stability index (treatment: DMSO) was 2.34 ± 0.064 and the protein stability index (treatment: MLN4924 1 uM, 8 h) was 2.33 ± 0.25.
Regarding GIKAQVALRLAELARRRRRRQARR [NOP53], the protein stability index runs as follows: (treatment: DMSO) 4.1 ± 0.34; (treatment: MLN4924 1 uM, 8 h) 3.85 ± 0.25.
For ELNKQVVSSSEQLQSYQAEIIELR [KRT33B], in that order: 3.76 ± 0.3 and 3.99 ± 0.34.
For RGDSVKVENPSTASHSLSPSEHVQ [ZNF649], in that order: 5.08 ± 0.37 and 5.19 ± 0.6.
In the case of ADIMISFVRGDHRDNSPFDGPGGN [MMP1], the protein stability index was determined as 2.96 ± 0.31 (treatment: DMSO) and 3.07 ± 0.36 (treatment: MLN4924 1 uM, 8 h).
Taken in the same sequence, the figures for PEDLAQLEELIDMAVLEEIQQELI [RPAIN] were 2.54 ± 0.14 and 2.89 ± 0.41.
Taken in the same sequence, the figures for RWEPSGKAEPRLPDRVYIHPDSPA [TBX6] were 3.98 ± 0.11 and 4.13 ± 0.18.
Taken in the same sequence, the figures for KCGSGARGGDGEVASAPLQPPVPS [TRADD] were 4.79 ± 0.24 and 4.78 ± 0.36.
Take MSEADGLRQRRPLRPQVVTDDDGQ [APMAP]: the protein stability index is 5.36 ± 0.28 (treatment: DMSO) and 5.37 ± 0.33 (treatment: MLN4924 1 uM, 8 h).
Taken in the same sequence, the figures for DARVKRKLRGPEPAATEAYGSGDT [TBX6] were 5.16 ± 0.3 and 5.24 ± 0.22.
As for AKEVTIAKADTTSTVTPVPGQEKG [EHMT1], the protein stability index is, setting by setting: (treatment: DMSO) 5.36 ± 0.28; (treatment: MLN4924 1 uM, 8 h) 5.52 ± 0.2.
Taken in the same sequence, the figures for KDLVMYSKCQRLFRSPSMPCSVIR [CDC25B] were 2.2 ± 0.18 and 2.73 ± 0.34.
For HLPVTFPGKDYDADRQCQLTFGPD [ADAMTS4], the protein stability index reads like this: (treatment: DMSO) 4.12 ± 0.26; (treatment: MLN4924 1 uM, 8 h) 4.38 ± 0.24.
Taken in the same sequence, the figures for TKQWTLIAKHLKGRLGKQCRERWH [MYBL2] were 2.51 ± 0.68 and 2.26 ± 0.38.
As for ECQYYIDKLEYLDEKQRDPRIEAS [NET1], the protein stability index runs as follows: (treatment: DMSO) 4.12 ± 0.13; (treatment: MLN4924 1 uM, 8 h) 4.04 ± 0.19.
Taken in the same sequence, the figures for TCQKFLIQYNRRQLLILLQNCTDE [POP5] were 2.73 ± 0.31 and 2.36 ± 0.21.
Turning to LSEASGGRAENGERSDLEEDNERE [ZC3H15], the protein stability index turned out to be 5.53 ± 0.47 (treatment: DMSO) and 5.81 ± 0.062 (treatment: MLN4924 1 uM, 8 h).
Turning to LPAGPLPAPLLVLCPSRAELDRWL [PLEKHN1], the protein stability index is, setting by setting: (treatment: DMSO) 2.81 ± 0.16; (treatment: MLN4924 1 uM, 8 h) 2.6 ± 0.22.
